Laboratory results published in patent US20240101675A1 (BIOLOJIC DESIGN, published 2024).
Numbering of substitutions follows the chain as printed. Read-outs that look alike come from different tables or passages of the source.

Key:
[1] = target: T1, recombinant human PD-1 tagged with histidine tag (hPD-1-His) (human, UniProt Q15116 25-167, limits assumed); assay: yeast surface display flow cytometry: scFv on yeast, 111 nM hPD-1-His, anti-His-APC; median RFU
T1 construct: bought (Reprokine); not shown: histidine tag

[2] = target: T1, recombinant human PD-1 tagged with …; assay: direct ELISA: antibody coated on the plate, hPD-1-His titrated, anti-His-HRP
Description: (§1) IgG binding affinity was examined by ELISA experiments. ELISA plates (Greiner Bio-One-high binding) were coated with 50 ul (100 ng) of the tested antibody and incubated for 1 hour at room temperature. Then plates were washed three times with 300 μl PBS buffer containing 0.05% Tween 20 (PBS-T), blocked with 300μ PBS-T supplemented with 1% to 3% BSA, and incubated for 1 hour at room temperature (RT). Antibodies-coated plates were then washed three times with 300 μl PBS-T and incubated with serial dilutions of test ligand either hPD-1-His, or hOX40-His, or hGITR-His (Reprokine, Israel) in a final volume of 50 ul for 1-3 hours. Plates were then washed three times with 300 μl PBS-T and incubated with 50 μl anti-HIS-HRP conjugate that was diluted 1:300 in PBS (Santa Cruz Biotechnology, USA). After an additional wash step, the reaction was developed with 50 ul tetrametylbenzidine (TMB) reagent (Southern biotech, USA), and stopped with 50 ul 0.5N H₂SO₄. […] The binding affinity was determined by fitting the data to a specific binding non-linear regression model on Prisma 8 GraphPad software.

[3] = target: T2, recombinant human GITR tagged with histidine tag (hGITR-His) (human, UniProt Q9Y5U5 26-161, limits assumed); assay: direct ELISA, antibody coated, hGITR-His titrated 0 to 865 nM
T2 construct: bought (Reprokine); not shown: histidine tag
T2 sequence (looked up): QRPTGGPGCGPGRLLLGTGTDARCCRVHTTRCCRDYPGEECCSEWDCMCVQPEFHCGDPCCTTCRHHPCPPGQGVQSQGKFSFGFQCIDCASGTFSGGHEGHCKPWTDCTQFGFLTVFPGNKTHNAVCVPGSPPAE

[4] = target: T2, recombinant human GITR tagged with …; assay: yeast surface display scFv, flow cytometry
Description: (§2) The library was screened on BioRad S3e Fluorescence Activated Cell Sorter (FACS) for high affinity binders of recombinant h-GITR-His, or recombinant h-PD1-His, or recombinant h-OX40-His (Reprokine) using mouse anti Myc-FITC (Santa Cruze, USA) and goat anti-His-APC (Miltenyi Biotec, Germany) for fluorescence labeling. […] The chosen clones were incubated for 1 hour at room temperature with recombinant h-GITR-His, or hPD1-His, or hOX40-His, at the concentrations described in the example section. Cells were washed and resuspended in ice-cold PBS 0.1% BSA buffer containing a fluorescent labeled secondary antibody as described above for 20 min and analyzed using a flow cytometer. The values obtained were normalized to expression levels.

[5] = target: T1, recombinant human PD-1 tagged with …; assay: yeast surface display scFv, flow cytometry
Description: as §2

human TSLP = target: T3, human TSLP (human, UniProt Q969D9 29-159); assay: SPR (ProteOn XPR36), IgG captured, hTSLP as analyte 3.2 to 0.2 nM
T3 construct: also called hTSLP; h-TSLP

recombinant human IL-13 = target: T4, recombinant human IL-13 (human, UniProt P35225 35-146); assay: SPR, IgG captured, hIL-13 as analyte, steady state
T4 construct: also called rh-IL-13; rhIL-13
T4 sequence (P35225 35-146 limits assumed): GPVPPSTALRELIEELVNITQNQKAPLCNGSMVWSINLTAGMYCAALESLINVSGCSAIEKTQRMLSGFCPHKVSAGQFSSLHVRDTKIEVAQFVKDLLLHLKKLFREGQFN
Description: Subsequent to a cycle, the analyte and tested antibody were stripped from the chip and new tested Ab was loaded on the chip as described above. KD was determined at a steady state condition.

[6] = target: T5, recombinant human OX40 tagged with histidine tag (hOX40-His) (human, UniProt P43489 29-216); assay: yeast surface display flow cytometry: scFv on yeast, 90 nM hOX40-His, anti-His-APC; median RFU
T5 construct: bought (Reprokine); also called hOX-His; not shown: histidine tag
T5 sequence (looked up): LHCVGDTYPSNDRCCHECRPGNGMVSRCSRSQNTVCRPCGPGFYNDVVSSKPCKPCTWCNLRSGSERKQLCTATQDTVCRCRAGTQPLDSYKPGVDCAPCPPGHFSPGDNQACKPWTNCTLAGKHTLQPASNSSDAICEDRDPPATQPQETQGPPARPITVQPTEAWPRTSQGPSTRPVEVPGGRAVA

[7] = target: T1, recombinant human PD-1 tagged with …; assay: yeast surface display flow cytometry: scFv on yeast, 30 nM hPD-1-His, anti-His-APC; median RFU
[8] = target: T6, PD-1 on engineered Jurkat effector cells (PD-1/PD-L1 Blockade Bioassay) (UniProt Q15116 25-288, limits assumed); assay: cell-based or functional assay
[9] = target: T6, PD-1 on engineered Jurkat effector …; assay: cell-based or functional assay; remark: listed apart in the source
[10] = target: T5, recombinant human OX40 tagged with …; assay: direct ELISA, antibody coated, hOX40-His titrated 0 to 500 nM
Description: as §1

[11] = target: T5, recombinant human OX40 tagged with …; assay: direct ELISA: antibody coated on the plate, hOX40-His titrated, anti-His-HRP
Description: as §1

[12] = target: T1, recombinant human PD-1 tagged with …; assay: direct ELISA: antibody coated on the plate, hPD-1-His titrated, anti-His-HRP; remark: listed apart in the source
Description: as §1

[13] = target: T5, recombinant human OX40 tagged with …; assay: yeast surface display scFv, flow cytometry, 90 nM hOX40-His
[14] = target: T7, recombinant human IL-13 (rh-IL-13)-Fc (human, UniProt P35225 35-146, limits assumed); assay: yeast surface display scFv, flow cytometry, 10 nM rh-IL-13
T7 construct: used for yeast surface display labelling; not shown: Fc (detected with anti human Fc)
T7 sequence (P35225 35-146 limits assumed): as the sequence (P35225 35-146 limits assumed) above

[15] = target: T8, recombinant human TSLP (hTSLP)-Fc (human, UniProt Q969D9 29-159, limits assumed); assay: yeast surface display flow cytometry, 10 nM hTSLP-Fc; MFI normalized to expression and to the positive control
T8 construct: used for yeast surface display labelling; also called rhTSLP; not shown: Fc

[16] = target: T7, recombinant human IL-13 (rh-IL-13)-Fc; assay: yeast surface display flow cytometry, 10 nM rh-IL-13-Fc; MFI normalized to expression and to the positive control
Description: Isolated clones from the final sort were sequenced by extraction of plasmid DNA from the yeast clones using a Zymoprep kit (Zymo Research, USA) and the DNA was sequenced. […] Cells were washed and resuspended in ice-cold PBS 0.1% BSA buffer containing a fluorescent labeled secondary antibody as described above for 20 min and analyzed using a flow cytometer.

B1: G2 (GITR Library) (scFv, V domains shown)
VH: QVQLVESGGGVVQPGRSLRLDCKASGITFSNSGMHWVRQAPGKGLEWVAVIWYDGSLRYYADSVKGRFTISRDNSKNTLFLQMNSLRAEDTAVYYCATNDDYWGQGTLVTVSS
VL: EIVLTQSPATLSLSPGERATLSCRASQSVSDNLAWYQQKPGQAPRLLIYDADNRATGIPARFSGSGSGTDFTLTISSLEPEDFAVYYCQQSSNLPRTFGQGTKVEIK
notes: also called Clone G2; not shown: linker
Q: Does B1 bind [1]?
A: binds

B2: BDG32.004 (antibody, human IgG1, V domains shown)
VH: B1 VH with I27F
VL: B1 VL with A34Q, N53T
Q: How did the “EC50 (read off the curve)” value [2] turn out when B2 was run?
A: ~2 nM

Q: And the EC50 [3]?
A: ~13 nM

B3: G5 (GITR Library) (scFv, V domains shown)
VH: B1 VH with Q13H, L20V
VL: B1 VL with E79A
notes: not shown: linker
Q: Does B3 bind [4]?
A: binds

Q: Does B3 bind [5]?
A: binds

B4: G8 (GITR Library) (scFv, V domains shown)
VH: B1 VH with T98S
VL: B1 VL
notes: not shown: linker
Q: Which results are given for B4?
A: binding result [4]: binds; binding result [5]: binds

B5: BDG33.004 (antibody, human IgG1, V domains shown)
VH: QMQLVESGGGVVQPGRSLRLSCAASGFTFRTYGMHWVRQAPGKGLEWVAVIWYDGSNKHYADSVKGRFTITRDNSKNTLNLQMNSLRAEDTAVYYCARAPQWMLVAEAFDLWGQGTMVTVSS
VL: SYVLTQPPSVSVAPGQTARITCGGNLIGSKLVHWYQQKPGQAPVLVVYDDSDRPSRIPERFSGSNSGNTATLTISRVEAGDEADYYCQVWDSSSDHVVFGGGTKLTVL
notes: human IgG1; also called BGD33.004; Clone C6 as IgG1
Q: With B5 as the binder, how does the Kd (human TSLP) read?
A: 3.33 nM

Q: And the koff (human TSLP)?
A: 0.00114 s⁻¹

Q: What about the kon (human TSLP) of the same binder?
A: 344000 M⁻¹ s⁻¹

Q: And the Kd (recombinant human IL-13)?
A: 57.4 nM

B6: BDG33.003 (antibody, human IgG1, V domains shown)
VH: B5 VH with M103E, V105T, L111I
VL: B5 VL with R56L, H96G
notes: also called BGD33.003; Clone C2 as IgG1
Q: Which results are given for B6?
A: Kd (human TSLP): 4.5 nM; koff (human TSLP): 0.00129 s⁻¹; kon (human TSLP): 287000 M⁻¹ s⁻¹; Kd (recombinant human IL-13): 21.6 nM

B7: 1B_seq96_13753_B01_4279975 (OX40 Library) (scFv, V domains shown)
VH: B1 VH with L57K
VL: B1 VL with S30I, D31H, N32Y, D52S, S91Y, L94W, R96L
notes: not shown: linker
Q: Does B7 bind [6]?
A: binds

Q: Does B7 bind [7]?
A: binds

B8: 3212ACOXC23 (OX40 library) (scFv, V domains shown)
VH: B1 VH with T28D, V48L, L57K, T98S
VL: B1 VL with S30I, D31H, N32Y, D52S, S91Y, S92E, L94W, R96L
notes: not shown: linker
Q: Which results are given for B8?
A: binding result [6]: binds; binding result [7]: binds

B9: 3212ACOXC61 (OX40 library) (scFv, V domains shown)
VH: B1 VH with T28A, L57K, R58T
VL: B1 VL with S30I, D31H, N32Y, D52S, S91Y, S92T, L94W, R96L
notes: not shown: linker
Q: Does B9 bind [6]?
A: binds

Q: Does B9 bind [7]?
A: binds

B10: BDG32.007 (antibody, human IgG1, V domains shown)
VH: B1 VH with L57K, R58T
VL: B1 VL with S30E, D31H, N32Y, D52G, S91Y, N93D, L94W, R96L
notes: human IgG1 format of clone 3212ACOXC5A
Q: What does the source list for B10?
A: IC50, cellular reporter PD1/PDL1 blocking assay (PD-1 dependent luminescence) [8]: ~2.5 nM; IC50 (read off the curve); PD-1/PD-L1 Blockade Bioassay, luciferase RLU [9]: ~2 nM; EC50 [10]: ~26 nM; EC50 (read off the curve) [11]: ~30 nM; EC50 (read off the curve) [12]: ~0.6 nM

B11: BDG32.008 (antibody, human IgG1, V domains shown)
VH: B1 VH with T28D
VL: B1 VL with S30E, D31H, N32Y, I48V, D52S, S91Y, L94W, R96L
notes: human IgG1 format of clone 3212ACOXC7A
Q: For B11, which EC50 [10] is on record?
A: ~24 nM

Q: And the “EC50 (read off the curve)” value [11]?
A: ~20 nM

Q: What about the “EC50 (read off the curve)” value [12] of the same binder?
A: ~0.9 nM

B12: OX-Clone36 (OX40 library) (scFv, V domains shown)
VH: B1 VH with T28D, L57K, T98S
VL: B1 VL with S30I, D31H, N32Y, D52S, S91Y, S92D, L94W, R96L
notes: not shown: linker
Q: Does B12 bind [13]?
A: binds

B13: OX-Clone71 (OX40 library) (scFv, V domains shown)
VH: B1 VH with T28D, L57K, T98S
VL: B1 VL with S30E, D31H, N32Y, D52S, R54P, S91Y, L94W, R96L
notes: not shown: linker
Q: Does B13 bind [13]?
A: binds

B14: C2 (yeast-displayed scFv clone) (scFv, V domains shown)
VH: B5 VH with M103E, V105T, L111I
VL: B5 VL with R56L, H96G
notes: also called Clone C2; C2-VH-L-VL; not shown: linker
Q: For B14, which “relative affinity (normalized MFI against the positive control)” value [14] is on record?
A: > 20 % of positive control

B15: C6 (yeast-displayed scFv clone) (scFv, V domains shown)
VH: B5 VH
VL: B5 VL
notes: also called Clone C6; C6-VH-L-VL; not shown: linker
Q: With B15 as the binder, how does the “relative affinity (normalized MFI against the positive control)” value [14] read?
A: > 20 % of positive control

B16: C9 (yeast-displayed scFv clone) (scFv, V domains shown)
VH: B5 VH with A99S, M103E, L104W, A106H
VL: B5 VL with S51G, R56W, H96G
notes: also called Clone C9; C9-VH-L-VL; not shown: linker
Q: With B16 as the binder, how does the “relative affinity (normalized MFI against the positive control)” value [14] read?
A: > 20 % of positive control

B17: C26 (scFv, V domains shown)
VH: B5 VH with M103E, V105T
VL: B5 VL with L26I, S51G, R56G, S92T
notes: also called C26-VH-L-VL
Q: Which results are given for B17?
A: binding result [15]: binds; binding result [16]: binds

B18: C37 (scFv, V domains shown)
VH: B5 VH with M103E, L111M
VL: B5 VL
notes: also called C37-VH-L-VL
Q: What does the source list for B18?
A: binding result [15]: binds; binding result [16]: binds

B19: C39 (scFv, V domains shown)
VH: B5 VH with M103E, V105T
VL: B5 VL with I27L, R56W, S92T
notes: also called C39-VH-L-VL
Q: Does B19 bind [15]?
A: binds

Q: Does B19 bind [16]?
A: binds

B20: C40 (yeast-displayed scFv clone) (scFv, V domains shown)
VH: B5 VH with A99S, M103E, L104W, A106H
VL: B5 VL with L26N, S92T, H96G
notes: also called C40-VH-L-VL; not shown: linker
Q: With B20 as the binder, how does the “relative affinity (normalized MFI against the positive control)” value [14] read?
A: > 20 % of positive control

Q: Does B20 bind [15]?
A: binds

B21: C43 (scFv, V domains shown)
VH: B5 VH with M103Q, L111I
VL: B5 VL with R56A, S92T, H96G
notes: also called C43-VH-L-VL
Q: Does B21 bind [15]?
A: binds

Q: Does B21 bind [16]?
A: binds
